The values below come from article PMC7984243, “Mechanistic characterization of UDP‐glucuronic acid 4‐epimerase” (The Febs Journal, 2020).

Series [1] addresses T1, BcUGAepi (UDP-glucuronic acid 4-epimerase) (Bacillus cereus group, UniProt Z9OZ01HDE8).
T1 construct: C-terminal Strep-tag kept; synthetic gene in pET17b; expressed in E. coli Lemo21(DE3); monomer 37003 g/mol
Nature of the series: HPLC of cofactor released from denatured enzyme. In kind it is binding.

The subject of series [2] is BcUGAepi (UDP-glucuronic acid 4-epimerase). As to conditions: tightly bound cofactor of the isolated enzyme.
Series [3] shares this test system. As to conditions: 1 mM UDP-GlcA; 135 µM enzyme; 100 µM NAD+; pH 7.6; 23 °C.
In series [4] the test system is O=C(O)[C@H]1O[C@H](OP(=O)(O)OP(=O)(O)OC[C@H]2O[C@@H](n3ccc(=O)[nH]c3=O)[C@H](O)[C@@H]2O)[C@H](O)[C@@H](O)[C@@H]1O. The experiment in a line: purified protein. Conditions: forward epimerization, 50 µM NAD+, 50 mM sodium phosphate, 100 mM NaCl, pH 7.6, room temperature (23 °C).
Series [5] concerns O=C(O)[C@H]1O[C@H](OP(=O)(O)OP(=O)(O)OC[C@H]2O[C@@H](n3ccc(=O)[nH]c3=O)[C@H](O)[C@@H]2O)[C@H](O)[C@@H](O)[C@H]1O. Nature of the series: purified protein. As to conditions: reverse epimerization, 50 µM NAD+, 50 mM sodium phosphate, 100 mM NaCl, pH 7.6, room temperature (23 °C).
For the next series, the target named is Tyr149 (UniProt position 149, TPQSPYGKSKL). The experiment in a line: kinetics. As to conditions: cited from earlier work.
The target in series [6] is UDP-glucuronic acid 4-epimerase from Bacillus cereus HuA2-4 (Bacillus cereus HuA2-4). Nature of the series: SEC; gel filtration of the isolated protein (HiLoad 16/60 Superdex 200, calibrated with a gel filtration standard mixture); details in the Supporting information. For orientation: In gel filtration, larger molecules generally elute earlier.
Another series has as its target Tyr149 (position 149, …). The experiment in a line: kinetics. As to conditions: 23 °C, 50 mM Na2HPO4, 100 mM NaCl, pH adjusted with NaOH or HCl, Enzyme-NAD+ with saturating UDP-GlcA (1 mM) and 100 µM added NAD+. The kcat profile reports on the enzyme/NAD+/UDP-GlcA complex.

Usually Km stands for the concentration of substrate that gives half-maximal velocity. By kcat is commonly meant the number of substrate molecules converted per active site and unit of time at saturation. As a reminder, the pKa is the negative logarithm of the acid dissociation constant. For orientation: stoichiometry N means a count of units in the complex or per binding partner.

In the case of `NC(=O)C1=CN([C@@H]2O[C@H](COP(=O)(O)OP(=O)(O)OC[C@H]3O[C@@H](n4cnc5c(N)ncnc54)[C@H](O)[C@@H]3O)[C@@H](O)[C@H]2O)C=CC1` [NADH], in series [1] (minor co-purified reduced form of the bound cofactor), the “HPLC of cofactor released from denatured enzyme” value was “NADH was also present, the content varying slightly”.
`NC(=O)c1ccc[n+]([C@@H]2O[C@H](COP(=O)(O)OP(=O)(O)OC[C@H]3O[C@@H](n4cnc5c(N)ncnc54)[C@H](O)[C@@H]3O)[C@@H](O)[C@H]2O)c1` [NAD^+]: the co-purified cofactor result in series [2] is “The purified Y149F variant (Fig. S19) contained protein‐bound NAD^+ as the wild‐type enzyme”. Moreover, the “HPLC of cofactor released from denatured enzyme” value in series [1] (co-purified, tightly bound, one per subunit) is reported as “we identified the cofactor as NAD, not NADP”.
As for `O=C(O)[C@H]1O[C@H](OP(=O)(O)OP(=O)(O)OC[C@H]2O[C@@H](n3ccc(=O)[nH]c3=O)[C@H](O)[C@@H]2O)[C@H](O)[C@@H](O)[C@@H]1O` [UDP-GlcA], the “HPLC time course of conversion” value in series [3] is “the Y149F variant converted UDP‐GlcA into UDP‐GalA without trace formation of side products”.
On to “BcUGAepi (UDP-glucuronic acid 4-epimerase) (Bacillus cereus group)”, for which, in series [4], the Km was found to be 360 ± 20 µM and the catalytic constant (kcat) stood at 0.25 ± 0.01 s⁻¹. Moreover, in series [5], the Km stood at 890 ± 130 µM and the kcat stood at 0.32 ± 0.02 s⁻¹.
“UDP-galactose 4-epimerase (GALE) (Escherichia coli)”: the pKa in the series with Tyr149 is 6.9.
As to “UDP-glucuronic acid 4-epimerase from Bacillus cereus HuA2-4 (enzyme)”, the stoichiometry N in series [6] came to 2.

B1: UDP-glucuronic acid 4-epimerase (BcUGAepi) (Bacillus cereus HuA2-4) (protein)
chain: MKILVTGAAGFIGSHLCQALLKNSAYHVVGIDHFIGPTPATLKTGNIQSLELNSRFQFIREDILNTDLSKLLQDIDVVYHLAAIPGVRTSWGKDFQPYVTNNIMVTQQLLEACKHIKLDKFIHISTSSVYGEKSGAVSEDLLPIPLSPYGVTKLSGEHLCHVYHKNFHIPIVILRYFTVYGPRQRPDMAFHRLIKQMLEDKPLTIFGDGTQTRDFTYIDDCIRGTVAALETKKNIIGEVINIGGKEQASILDIISMLEKISGKSATKNFLKSVPGEPKQTWADISKASTLLQYSPTVSLSDGLEAEYDYIKQLYKGDAAWSHPQFEK
In the case of B1, in the series with Tyr149 (position 149, …), the pKa is on record as 5.90 (±0.05).
